Source: patent US20210154314A1

Experiments:
Her2 (ErbB2) [1] = target: Her2 (ErbB2) (UniProt P04626); experiment: ligand binding assay ('Binding Activity'), format not described; lyophilized formula B4 after 25 C for 3 months
Her2 (ErbB2) [2] = target: Her2 (ErbB2) (UniProt P04626); experiment: ligand binding assay ('Binding Activity'), format not described; lyophilized formula B6 after 37 C for 1 month
Her2 (ErbB2) [3] = target: Her2 (ErbB2) (UniProt P04626); experiment: ligand binding assay ('Binding Activity'), format not described; lyophilized formula B6 after 25 C for 3 months
Her2 (ErbB2) [4] = target: Her2 (ErbB2) (UniProt P04626); experiment: ligand binding assay ('Binding Activity'), format not described; lyophilized formula B4 after 4 C for 6 months
Her2 (ErbB2) [5] = target: Her2 (ErbB2) (UniProt P04626); experiment: ligand binding assay ('Binding Activity'), format not described; lyophilized formula B4 after 37 C for 1 month
Her2 (ErbB2) [6] = target: Her2 (ErbB2) (UniProt P04626); experiment: ligand binding assay ('Binding Activity'), format not described; lyophilized formula B2 after 4 C for 6 months
Her2 (ErbB2) [7] = target: Her2 (ErbB2) (UniProt P04626); experiment: ligand binding assay ('Binding Activity'), format not described; lyophilized formula B2 after 25 C for 3 months
Her2 (ErbB2) [8] = target: Her2 (ErbB2) (UniProt P04626); experiment: ligand binding assay ('Binding Activity'), format not described; lyophilized formula B6 after 4 C for 6 months
Her2 (ErbB2) [9] = target: Her2 (ErbB2) (UniProt P04626); experiment: ligand binding assay ('Binding Activity'), format not described; lyophilized formula B2 after 37 C for 1 month

IC50 (Her2 (ErbB2) [1]): 0.0127 nM | IC50 (Her2 (ErbB2) [2]): 0.0148 nM | IC50 (Her2 (ErbB2) [3]): 0.0129 nM | IC50 (Her2 (ErbB2) [4]): 0.0122 nM | IC50 (Her2 (ErbB2) [5]): 0.0126 nM | IC50 (Her2 (ErbB2) [6]): 0.0132 nM | IC50 (Her2 (ErbB2) [7]): 0.0133 nM | IC50 (Her2 (ErbB2) [8]): 0.0133 nM | IC50 (Her2 (ErbB2) [9]): 0.0152 nM
B1: recombinant humanized anti-Her2 monoclonal antibody-MMAE conjugate (RC48-vc-MMAE) (antibody, INN chains, looked up, V domains shown, not shown: a dimerising Fc or GST)
VH: EVQLVQSGAEVKKPGATVKISCKVSGYTFTDYYIHWVQQAPGKGLEWMGRVNPDHGDSYYNQKFKDKATITADKSTDTAYMELSSLRSEDTAVYFCARNYLFDHWGQGTLVTVSS
VL: DIQMTQSPSSVSASVGDRVTITCKASQDVGTAVAWYQQKPGKAPKLLIYWASIRHTGVPSRFSGSGSGTDFTLTISSLQPEDFATYYCHQFATYTFGGGTKVEIK
modifications: vedotin: mc-vc-PAB-MMAE payload
